Measurements as given in patent US20230265151A1, “GIP/GLP1 CO-AGONIST COMPOUNDS” (priority 2020, published 2023).
*1 amine or outer side, *2 acyl side, *3 side chain or, on linkers, in order; H or OH if unused. Where no end group is shown, it is not given here. Side-chain parts run from the residue outwards. [ ]: non-standard residue; d: D form. The star is where a group is joined. αMePhe(2-F) = C[C@](N)(Cc1ccccc1F)C(=O)O; γGlu = O=C(O)[C@H](CCC(=O)[*:2])N[*:1]; C14 diacid = O=C(O)CCCCCCCCCCCCC(=O)*; αMeY = C[C@](N)(Cc1ccc(O)cc1)C(=O)O; αMeL = CC(C)C[C@](C)(N)C(=O)O; Orn = NCCC[C@H](N)C(=O)O; Dap = NC[C@H](N)C(=O)O; AEEA = NCCOCCOCC(=O)O; Aib = CC(C)(N)C(=O)O

T1: human GIP receptor (human, UniProt P48546 22-466)
T1 sequence (looked up): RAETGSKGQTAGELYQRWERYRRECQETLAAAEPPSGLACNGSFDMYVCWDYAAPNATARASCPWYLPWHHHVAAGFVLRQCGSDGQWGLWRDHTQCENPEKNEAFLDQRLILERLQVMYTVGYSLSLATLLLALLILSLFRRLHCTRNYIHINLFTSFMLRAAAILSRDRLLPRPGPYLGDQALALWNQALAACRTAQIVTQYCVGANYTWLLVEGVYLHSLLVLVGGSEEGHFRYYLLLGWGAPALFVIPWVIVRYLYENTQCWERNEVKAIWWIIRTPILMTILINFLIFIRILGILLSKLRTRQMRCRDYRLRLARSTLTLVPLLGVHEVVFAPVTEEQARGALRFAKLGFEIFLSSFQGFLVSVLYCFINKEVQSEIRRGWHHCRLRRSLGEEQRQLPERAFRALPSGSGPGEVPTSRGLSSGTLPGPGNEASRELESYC

T2: human glucose-dependent insulinotropic polypeptide (GIP) receptor (human, UniProt P48546 22-466)
T2 sequence (looked up): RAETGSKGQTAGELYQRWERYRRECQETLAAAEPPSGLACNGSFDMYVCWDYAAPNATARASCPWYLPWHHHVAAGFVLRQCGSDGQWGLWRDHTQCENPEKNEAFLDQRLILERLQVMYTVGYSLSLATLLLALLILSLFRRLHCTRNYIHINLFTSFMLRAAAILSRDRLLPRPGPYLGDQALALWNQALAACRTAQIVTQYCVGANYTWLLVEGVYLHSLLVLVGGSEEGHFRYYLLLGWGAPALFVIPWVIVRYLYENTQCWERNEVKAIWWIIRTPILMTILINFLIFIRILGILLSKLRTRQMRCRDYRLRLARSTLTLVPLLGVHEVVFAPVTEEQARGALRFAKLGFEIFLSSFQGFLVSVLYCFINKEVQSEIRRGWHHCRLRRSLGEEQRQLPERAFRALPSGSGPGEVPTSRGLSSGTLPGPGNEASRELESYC

B1: Y-Aib-EGT-αMeF(2F)-TSDV-Dap-I-αMeL-LD-Orn-K((2-[2-(2-Amino-ethoxy)-ethoxy]-acetyl)2-(γ-Glu)-CO-(CH2)12-CO2H)AQ-Aib-EFIe-αMeY-LIEGGK((2-[2-(2-Amino-ethoxy)-ethox … (peptide)
peptide: Y[Aib]EGT[αMePhe(2-F)]TSDV[Dap]I[αMeL]LD[Orn]K([AEEA-AEEA-γGlu-C14 diacid])AQ[Aib]EFI[dE][αMeY]LIEGGK([AEEA-AEEA-γGlu-C14 diacid])SSGAPPPS-NH2
modifications: N-terminus assumed
SMILES: CC[C@H](C)[C@H](NC(=O)[C@H](CC(C)C)NC(=O)[C@](C)(Cc1ccc(O)cc1)NC(=O)[C@@H](CCC(=O)O)NC(=O)[C@@H](NC(=O)[C@H](Cc1ccccc1)NC(=O)[C@H](CCC(=O)O)NC(=O)C(C)(C)NC(=O)[C@H](CCC(N)=O)NC(=O)[C@H](C)NC(=O)[C@H](CCCCNC(=O)COCCOCCNC(=O)COCCOCCNC(=O)CC[C@H](NC(=O)CCCCCCCCCCCCC(=O)O)C(=O)O)NC(=O)[C@H](CCCN)NC(=O)[C@H](CC(=O)O)NC(=O)[C@H](CC(C)C)NC(=O)[C@](C)(CC(C)C)NC(=O)[C@@H](NC(=O)[C@H](CN)NC(=O)[C@@H](NC(=O)[C@H](CC(=O)O)NC(=O)[C@H](CO)NC(=O)[C@@H](NC(=O)[C@](C)(Cc1ccccc1F)NC(=O)[C@@H](NC(=O)CNC(=O)[C@H](CCC(=O)O)NC(=O)C(C)(C)NC(=O)[C@@H](N)Cc1ccc(O)cc1)[C@@H](C)O)[C@@H](C)O)C(C)C)[C@@H](C)CC)[C@@H](C)CC)C(=O)N[C@@H](CCC(=O)O)C(=O)NCC(=O)NCC(=O)N[C@@H](CCCCNC(=O)COCCOCCNC(=O)COCCOCCNC(=O)CC[C@H](NC(=O)CCCCCCCCCCCCC(=O)O)C(=O)O)C(=O)N[C@@H](CO)C(=O)N[C@@H](CO)C(=O)NCC(=O)N[C@@H](C)C(=O)N1CCC[C@H]1C(=O)N1CCC[C@H]1C(=O)N1CCC[C@H]1C(=O)N[C@@H](CO)C(N)=O
B2: Y-Aib-EGT-αMeF(2F)-TSD-4Pal-SI-αMeL-LD-Orn-K((2-[2-(2-Amino-ethoxy)-ethoxy]-acetyl)2-(γ-Glu)-CO-(CH2)12-CO2H)AQ-Aib-EFI-(D-Glu)-αMeY-LIEGK((2-[2-(2-Amino-ethoxy … (peptide)
peptide: YXEGTXTSDXSIXLDXKAQXEFIXXLIEGKPSSGAPPPS
modifications: Aib2, αMeF(2F)6, 4Pal10, αMeL13, Orn16, Aib20, D-Glu24, αMeY25; acylated K17, K30 (groups as in name); C-terminal amide
B3: Example 199 (peptide)
peptide: YXEGTXTSDXXIXLDXKAQXEFIXXLIEGGKSSGAPPPS
modifications: Aib2, αMeF(2F)6, 4Pal10, Dap11, αMeL13, Orn16, K17(Z), Aib20, D-Glu24, αMeY25, K31(Z), C-terminal NH2; Z = AEEA2-(γ-Glu)-CO-(CH2)12-CO2H
B4: Example 191 (peptide)
peptide: YXEGTXTSDXSIXLDXIAQXKFIKXLIEGGPSSGAPPPS
modifications: Aib2, αMeF(2F)6, 4Pal10, αMeL13, Orn16, Aib20, K21(Z), K24(Z), αMeY25, C-terminal NH2; Z = AEEA2-CO-(CH2)12-CO2H
B5: Example 195 (peptide)
peptide: YXEGTXTSDXSIXLDXIAQXKFIXXLIEGGKSSGAPPPS
modifications: not fully specified; Aib2, αMeF(2F)6, 4Pal10, αMeL13, Orn16, Aib20, K21(AEEA2-CO-(CH2)12-CO2H), D-Glu24, αMeY25, K31(AEEA2-CO-(CH2)2-CO2H as printed), C-terminal NH2
B6: Example 198 (peptide)
peptide: YXEGTXTSDXSIXLDXIAQXEFIKXLIEGGKSSGAPPPS
modifications: Aib2, αMeF(2F)6, 4Pal10, αMeL13, Orn16, Aib20, K24(Z), αMeY25, K31(Z), C-terminal NH2; Z = (εK)-(εK)-(γ-Glu)-CO-(CH2)12-CO2H
B7: Example 193 (peptide)
peptide: YXEGTXTSDXSIXLDXIAQXEFIKXLIEGGKSSGAPPPS
modifications: Aib2, αMeF(2F)6, 4Pal10, αMeL13, Orn16, Aib20, K24(Z), αMeY25, K31(Z), C-terminal NH2; Z = AEEA2-CO-(CH2)12-CO2H
B8: Y-Aib-EGT-αMeF(2F)-TSD-4Pal-SI-αMeL-LD-Orn-K((2-[2-(2-Amino-ethoxy)-ethoxy]-acetyl)2-(γ-Glu)-CO-(CH2)14-CH3)AQ-Aib-EFI-(D-Glu)-αMeY-LIEGK((2-[2-(2-Amino-ethoxy) … (peptide)
peptide: YXEGTXTSDXSIXLDXKAQXEFIXXLIEGKPSSGAPPPS
modifications: Aib2, αMeF(2F)6, 4Pal10, αMeL13, Orn16, Aib20, D-Glu24, αMeY25; acylated K17, K30 (groups as in name); C-terminal amide
B9: Y-Aib-EGT-αMeF(2F)-TSDV-αMeS-I-αMeL-LD-Orn-K((2-[2-(2-Amino-ethoxy)-ethoxy]-acetyl)2-(γ-Glu)-CO-(CH2)12-CO2H)AQ-Aib-EFI-(D-Glu)-αMeY-LIEGGK((2-[2-(2-Amino-ethox … (peptide)
peptide: YXEGTXTSDVXIXLDXKAQXEFIXXLIEGGKSSGAPPPS
modifications: Aib2, αMeF(2F)6, αMeS11, αMeL13, Orn16, Aib20, D-Glu24, αMeY25; acylated K17, K31 (groups as in name); C-terminal amide

Key:
Experiment in all cases: cell-based or functional assay
human GLP-1 receptor = human GLP-1 receptor (human, UniProt P43220 24-463)
human GIP receptor = molecular target: T1, human GIP receptor
human glucagon receptor [1] = molecular target: human glucagon receptor (human, UniProt P47871 26-477)
human glucagon receptor [2] = molecular target: human glucagon receptor (human, UniProt P47871 26-477); remark: listed apart in the source
[3] = molecular target: human glucagon-like peptide-1 (GLP-1) receptor (human, UniProt P43220 24-463)
[4] = molecular target: T2, human glucose-dependent insulinotropic …

Binder	cAMP EC50 (1.0% HSA) (human GLP-1 receptor)	cAMP EC50 (1.0% HSA) (human GIP receptor)	cAMP Emax (1.0% HSA) (human GIP receptor)	cAMP Emax (1.0% HSA) (human GLP-1 receptor)	cAMP EC50 (1.0% HSA) (human glucagon receptor [1])	cAMP EC50 (human glucagon receptor [2])	cAMP EC50 [3]	cAMP Emax [3]	cAMP EC50 [4]	cAMP Emax [4]
B1	25.1 nM	13.2 nM	80.5%							
B2		1.12 nM		103%	> 9950 nM					
B3						> 9950 nM	3.2 nM	96.7%	0.0587 nM	96.9%
B4						> 9950 nM	0.926 nM	98.6%	0.0601 nM	90%
B5						> 9950 nM	0.343 nM		0.0219 nM	88.5%
B6						> 9950 nM	0.362 nM		0.0269 nM	94%
B7						> 9950 nM	0.382 nM		0.0201 nM	97.2%
B8		0.444 nM		103%	> 9950 nM					
B9	33.7 nM	16.6 nM	81%	91%						
